# Reference: patent publication US5336488A, “Method of treating or preventing mastitis in animals with involuting mammary glands by administering recombinant cytokines” (American Cyanamid Company, priority 1992, dated 1994)
# Test: Milk production in lactations immediately following dry cow therapy
# Assay type: in vivo, bovine (dairy cows)
# Conditions: FIG. 6
# Experimental: FIG. 6: Milk Production Early in Lactation Before and After Intramammary Infusion of r-BoIL-2 as a Dry Cow Therapy
# Mean milk production in kilograms; (S.D.) is shown for 4 cows for the first six days after the initiation of lactation for the lactation immediately prior to treatment and immediately following treatment. Production after r-BoIL-2 treatment or for the same time period for the lactation prior to treatment is monitored. Total dose of r-BoIL-2 received by each treated cow is 2 mg. Three cows are completing their second lactation and one is completing its third lactation at the time of r-BoIL-2 therapy. Post-treatment production from initiation of the third or fourth lactation is compared to the production for the first 6 days after initiation of the second or third lactation (pre-treatment) respectively of the same animals .
# The effects of r-BoIL-2 on possible milk production after dry-cow therapy are also evaluated. Milk production for three dairy cows for the first five days of the lactation cycle (second or third lactation) prior to r-BoIL-2 treatment is compared to the milk production for the first five days of the lactation cycle (third or fourth lactation) immediately following r-BoIL-2 treatment, FIG. 6.
molecule,measurement,setting,value
"recombinant bovine interleukin-2 (protein, UniProt P05016 21-155, looked up, recombinant bovine interleukin-2, obtained from IMMUNEX Corp. Seattle, WA) Interleukin-2: APTSSSTGNTMKEVKSLLLDLQLLLEKVKNPENLKLSRMHTFDFYVPKVNATELKHLKCLLEELKLLEEVLNLAPSKNLNPREIKDSMDNIKRIVLELQGSETRFTCEYDDATVNAVEFLNKWITFCQSIYSTMT",improvement in milk production at the following lactation,first five days of lactation vs prior lactation,80%
same,inhibition of milk production at the following lactation,first five days of lactation,No inhibition of milk production
